Patent publication US12637513B2, “Method of treating cancer by administering an inhibitor of erythropoietin receptor activity comprising either erythropoietin receptor or erythropoietin protein” (ImmunEdge, Inc., priority 2022, dated 2026)

Key:
293T/CD131 cells = molecular target: T1, 293T/CD131 cells (Homo sapiens, UniProt P32927); experiment: Staining of 293T/CD131 cells with purified antibodies; assay type: binding
T1 construct: expressed in transfected cells; host or cells: 293T cells, lentiviral transduction
T1 sequence (P32927 17-897): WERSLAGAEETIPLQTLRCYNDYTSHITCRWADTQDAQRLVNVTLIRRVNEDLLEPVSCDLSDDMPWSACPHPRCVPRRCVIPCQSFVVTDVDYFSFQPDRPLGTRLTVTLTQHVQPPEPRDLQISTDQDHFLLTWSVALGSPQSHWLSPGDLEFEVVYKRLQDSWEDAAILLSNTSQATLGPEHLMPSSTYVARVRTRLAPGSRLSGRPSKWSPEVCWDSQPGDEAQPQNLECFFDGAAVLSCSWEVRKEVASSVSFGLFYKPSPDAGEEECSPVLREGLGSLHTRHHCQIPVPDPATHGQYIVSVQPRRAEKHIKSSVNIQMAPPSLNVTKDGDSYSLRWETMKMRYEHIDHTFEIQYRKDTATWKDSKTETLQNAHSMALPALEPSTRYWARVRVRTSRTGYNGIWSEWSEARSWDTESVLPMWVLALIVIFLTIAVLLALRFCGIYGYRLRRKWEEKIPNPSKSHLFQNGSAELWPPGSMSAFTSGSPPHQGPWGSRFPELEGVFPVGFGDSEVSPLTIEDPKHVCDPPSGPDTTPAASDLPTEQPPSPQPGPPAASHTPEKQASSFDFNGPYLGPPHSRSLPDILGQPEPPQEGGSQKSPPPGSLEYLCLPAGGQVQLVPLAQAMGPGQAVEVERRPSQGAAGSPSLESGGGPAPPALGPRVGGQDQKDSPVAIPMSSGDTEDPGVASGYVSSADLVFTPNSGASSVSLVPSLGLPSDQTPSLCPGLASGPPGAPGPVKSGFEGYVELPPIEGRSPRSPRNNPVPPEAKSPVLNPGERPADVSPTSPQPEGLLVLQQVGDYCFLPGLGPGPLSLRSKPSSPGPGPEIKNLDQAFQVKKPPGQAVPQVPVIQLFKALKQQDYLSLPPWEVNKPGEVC
Description: The purified antibodies were used to stain the human leukemia UT-7 cells, 293T/EPOR, 293T/CD131, and 293T/EPOR/CD131 cells to confirm antigen binding. The UT-7 cells were maintained in Roswell Park Memorial Institute (RPMI) with 10% Fetal Bovine Serum (FBS) and 5 ng/ml of recombinant human GM-CSF (Peprotech®, Cat #300-03). The 293T cells expressing hEPOR, hCD131, or both were maintained in Dulbecco's Modified Eagle Medium (DMEM) with 10% FBS. 1×10^6 cells/ml were incubated with purified hybridoma clones M2 and M41 at a 3-fold dilution series starting from 20 μg/ml for 30 minutes at 4° C. After washing, the cells were incubated with PE labeled secondary antibody and subjected to flowcytometric analysis. […] The binding profiles of the 293T/EPOR/CD131 cells are similar except the peak MFIs around 1500, half of that of the 293T/EPOR cells (FIG. 29B).

[1] = molecular target: T2, soluble hetero-EPOR (EPOR-CD131-Fc) (Homo sapiens, UniProt P19235+P32927); experiment: Bio-layer interferometry (Octet) binding of hybridoma antibodies to EPOR-CD131-Fc; conditions: hybridoma supernatants; 30 nM soluble receptor
T2 construct: Chimeric Fc fusion proteins of the extracellular domains of human EPOR and human CD131; purchased Sino Biological CT010-H02H
T2 sequence (P19235 25-250 limits assumed): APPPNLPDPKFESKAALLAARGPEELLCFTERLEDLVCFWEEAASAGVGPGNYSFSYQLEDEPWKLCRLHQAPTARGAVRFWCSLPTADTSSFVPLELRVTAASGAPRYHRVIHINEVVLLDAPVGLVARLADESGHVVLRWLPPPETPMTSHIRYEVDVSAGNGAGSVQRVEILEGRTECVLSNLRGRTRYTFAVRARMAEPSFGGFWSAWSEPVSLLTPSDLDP
T2 sequence (P32927 17-443 limits assumed): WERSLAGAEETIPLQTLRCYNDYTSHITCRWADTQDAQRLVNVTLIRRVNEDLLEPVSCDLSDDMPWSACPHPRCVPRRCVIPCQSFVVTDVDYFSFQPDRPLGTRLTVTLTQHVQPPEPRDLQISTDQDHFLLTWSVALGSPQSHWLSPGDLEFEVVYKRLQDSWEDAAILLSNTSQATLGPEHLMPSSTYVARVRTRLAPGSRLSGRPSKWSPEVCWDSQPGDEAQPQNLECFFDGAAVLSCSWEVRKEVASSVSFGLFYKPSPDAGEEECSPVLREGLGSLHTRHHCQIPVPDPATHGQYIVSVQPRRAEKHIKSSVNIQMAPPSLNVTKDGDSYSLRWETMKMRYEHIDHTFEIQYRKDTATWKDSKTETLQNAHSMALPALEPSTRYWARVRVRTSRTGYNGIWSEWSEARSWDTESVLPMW
From the text: The B cells from ATX-GK mice were fused with mouse myeloma cells to generate hybridoma. The hybridoma cells were screened twice. In the first screening, 293 cells expressing human EPOR, human CD131, or both were used as the primary screen. 87 hybridoma antibodies have been isolated by positive staining on 293T cells expressing human EPOR (hEPOR), human CD131 (hCD131), or both, with the hybridoma supernatants (Table 11 and FIG. 17). Expression of EPOR and CD131 was confirmed by flow cytometry with Phycoerythrin (PE)-labeled anti-EPOR (R&D Systems, Cat #FAB307P) and Alexa Fluor® 647 (AF647)-labeled anti-CD131 (BD Biosciences, Cat #564191), respectively (FIG. 28B). All hybridoma clones were purified and sequenced. Binding kinetics with soluble hetero-EPOR (EPOR-CD131-Fc), soluble EPO receptor subunit of hetero-EPOR (EPOR-Fc), and soluble CD131 subunit of hetero-EPOR (CD131-Fc) were measured using bio-layer interferometry (Octet®) by capturing the hybridoma antibodies in the supernatants on biosensors coated with anti-mouse Fc first and dipping the biosensors into the solutions containing 30 nM of the soluble receptor Fc fusion proteins. The supernatants were also used to block the interaction between EPO and EPOR. The soluble EPOR-CD131-Fc was first captured on biosensors coated with anti-human Fc and then dipped into 10 nM of EPO with or without the hybridoma supernatants. […]

B1: EPORab - M2: hybridoma antibody clone, VH/VK in Table 10 (antibody, V domains shown)
VH: QVQLVESGGGLVKPGGSLRLSCAASGFTFSDSYMSWIRQAPGKGLEWVSYISNSGSYMYYADSVKGRFTISRDNAKNSLYLQMNNLRAEDTAVYYCARDKLGIGDYWGQGTLVTVSS
VL: DIQMTQSPSSLSASVGDRVTITCRASQGIRNDLGWFQQKPGKAPKRLIYAASRLQSGVPSRFSGSGSGTEFTLTISSLQPEDFATYCCLQHHTYPPTFGQGTKVEIK
staining of 293T/CD131 cells (293T/CD131 cells): did not stain
binding to EPOR-CD131-Fc [1]: potent binding
